In paper PMC9907729 (Immunity, 2022):

T1: MBP-tagged FoxP3^RBR-forkhead (mouse, UniProt Q99JB6 284-423)
T1 sequence (looked up): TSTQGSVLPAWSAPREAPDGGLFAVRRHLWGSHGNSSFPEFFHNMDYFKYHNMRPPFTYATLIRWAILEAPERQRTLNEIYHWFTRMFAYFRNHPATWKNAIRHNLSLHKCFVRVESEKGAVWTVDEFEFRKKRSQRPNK


Columns and labels:
SEC-MALS = molecular target: the molecule itself; experiment: SEC-MALS
SEC = molecular target: the molecule itself; experiment: SEC
[1] = molecular target: T1, MBP-tagged FoxP3^RBR-forkhead; experiment: pull-down

Binder	stoichiometry N (SEC-MALS)	further results
NusA-tagged FoxP3^RBR-forkhead R337Q (domain or fragment, mouse, UniProt Q99JB6 284-423, looked up) TSTQGSVLPAWSAPREAPDGGLFAVRRHLWGSHGNSSFPEFFHNMDYFKYHNMQPPFTYATLIRWAILEAPERQRTLNEIYHWFTRMFAYFRNHPATWKNAIRHNLSLHKCFVRVESEKGAVWTVDEFEFRKKRSQRPNK	2	–
Recombinant Y373V FoxP3^RBR-forkhead (domain or fragment, mouse, UniProt Q99JB6 284-423, looked up) TSTQGSVLPAWSAPREAPDGGLFAVRRHLWGSHGNSSFPEFFHNMDYFKYHNMRPPFTYATLIRWAILEAPERQRTLNEIYHWFTRMFAVFRNHPATWKNAIRHNLSLHKCFVRVESEKGAVWTVDEFEFRKKRSQRPNK	–	stoichiometry N (SEC): 4
GST-tagged Runx1 (residue 371–451) (domain or fragment, mouse, UniProt Q03347 371-451, looked up) GSPSYHLYYGASAGSYQFSMVGGERSPPRILPPCTNASTGAALLNPSLPSQSDVVETEGSHSNSPTNMPPARLEEAVWRPY	–	binding result [1]: binds
NusA-tagged FoxP3^ΔN (domain or fragment, mouse, UniProt Q99JB6 188-423, looked up) GSYPLLANGVCKWPGCEKVFEEPEEFLKHCQADHLLDEKGKAQCLLQREVVQSLEQQLELEKEKLGAMQAHLAGKMALAKAPSVASMDKSSCCIVATSTQGSVLPAWSAPREAPDGGLFAVRRHLWGSHGNSSFPEFFHNMDYFKYHNMRPPFTYATLIRWAILEAPERQRTLNEIYHWFTRMFAYFRNHPATWKNAIRHNLSLHKCFVRVESEKGAVWTVDEFEFRKKRSQRPNK	2	–
